Test results from patent US6967029 (Amgen, dated 2005).

Biological target: T1, human SCF receptor, native, on cell membranes (human, UniProt P10721 26-976)
T1 construct: whole, on cells; also called human SCF receptors on OCIM1 cells (isolated OCIM1 plasma membrane); SCF receptors on leukemic blasts
Assay: radioreceptor assay: competition with 125I-huSCF on OCIM1 plasma membrane
Protocol: The SCF radioreceptor assay was conducted as follows with all steps being performed on ice. […] A dilution of isolated OCIM1 plasma membrane in 50 ul buffer known to give 20% specific binding was then added to each tube. Tubes were vortexed and allowed to incubate for 24 hrs at 4° C. […] All tubes were oriented with lid opening tabs straight up. Supernatants were carefully aspirated by a sliding a 21 gauge needle down the side opposite the pellet (hinge side of tube) to bottom of each tube. Tubes were counted in gamma counter for 1 min. each.

B1: E. coli derived human SCF^1-130 analog (ligand)
chain: EGICRNRVTNNVKDVTKLVANLPKDYMITLKYVPGMDVLPSHCWISEMVVQLSDSLTDLLDKFSNISEGLSNYSIIDKLVNIVDDLVECVKENSSKDLKKSFKSPEPRLFTPEEFFRIFNRSIDAFKDFV
notes: Plasmid encodes an initiating methionine before residue 1; Dimeric in solution by gel filtration
specific activity in the radioreceptor assay relative to SCF^1-164: ~50 % of the value for SCF^1-164
